From article PMC5013604

Experiments:
[1] = cycloheximide chase, western blot, MDA-MB-231; settings: glycan lost; control: wild type
[2] = PD-L1 IP, anti-K48 ubiquitin blot, with MG132; settings: glycan lost; control: MG132 without tunicamycin
[3] = western blot with GSK3β and β-TrCP overexpression; settings: glycan lost; control: wild type (co-expressed)

Substance | degradation_or_half_life, half_life [1] | other: ubiquitination [2] | expression_or_secretion [3]
PD-L1 (programmed death ligand-1, B7-H1): N35/3NQ | decreases |  | 
PD-L1 (programmed death ligand-1, B7-H1): N192Q | decreases |  | 
PD-L1 (programmed death ligand-1, B7-H1): tunicamycin |  | increases | 
PD-L1 (programmed death ligand-1, B7-H1): N35Q | no change |  | 
PD-L1 (programmed death ligand-1, B7-H1): N200Q | decreases |  | 
PD-L1 (programmed death ligand-1, B7-H1): 4NQ | decreases |  | decreases
PD-L1 (programmed death ligand-1, B7-H1): N219Q | decreases |  | 
